Several values for one entry are separate records, joined by “and”; a condition that tells them apart may be missing. Equal values may be shown once. Read-outs that look alike come from different tables or passages of the source.

Experiment [1] concerns the target control (Fig. 49).
Experiment [2] deals with control (Fig. 49). The source holds these as a separate data set.

As to “DR4 2×His DTB-HA306-318 complexes (DTB-streptactin purified monomers) (from UniProt P01903 26-216) (peptide-MHC)”, the % of cells in Q2 (multimer+ CD4+) with control (Fig. 49) [1] is 0.535% and 0.421%; with control (Fig. 49) [2] it was 0.985% and 0.623%.

The values are drawn from patent publication US20130289253A1.
